According to the supplement of paper PMC10567573:

B1: CLCN6 (parent)
chain: MAGCRGSLCCCCRWCCCCGERETR
B2: ETS1 (parent)
chain: YVRDRADLNKDKPVIPAAALAGYT

Variants of: B1
Assay: protein stability index of a GFP-peptide fusion (GPS, HEK-293T) (PSI 1-6); higher = more stable
Settings: c terminus: a fixed tail appended
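Further: lentivirally expressed fusions sorted by FACS into six bins by GFP to DsRed ratio, PSI derived from sequencing read proportions per bin multiplied by bin number.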

Protein stability index of substitutions, site by site:
C4: F 2.4 | W 1.79 | K 2.35 | R 2.33 | I 1.61 | S 1.69 | D 2.24 | E 2.58 | Y 2.12 | G 1.45 | L 2.74 | H 2.07 | A 1.84
G3: R 2.1 | M 1.99 | K 1.52 | N 1.5 | V 1.15 | W 1.9 | Q 1.31 | I 1.44 | P 1.27 | D 1.8 | F 2.11 | Y 2.37 | E 2.09
C9: D 1.18 | I 1.76 | F 1.77 | H 3.07 | G 2.23 | A 3.15 | E 1.45
G6: Y 1.89 | F 1.92 | A 1.83 | V 1.37 | I 2.06 | Q 2.28 | M 1.41 | T 1.59 | L 1.32 | P 1.58 | R 2.52 | W 2.54 | S 1.82 | E 2.38 | N 1.72 | H 1.86 | D 2.36
A2: E 2.77 | H 2.81 | F 2.2 | K 2.68 | Y 1.98 | Q 1.74 | P 1.37 | I 2.07 | V 1.46 | G 2.1 | D 2 | L 1.33 | M 1.73
S7: I 2.55 | L 1.9 | H 1.89 | F 1.91 | C 2.52 | Y 1.43 | W 2.47 | R 1.37 | Q 1.49 | T 1.77 | P 2.19 | K 1.5 | N 1.09 | A 1.5
L8: F 1.1 | Q 1.29 | S 1.22 | G 2.1 | D 1.17 | C 1.54 | I 1.32 | N 1.42 | T 1.42 | R 2.16 | K 1.53 | E 1.83 | V 2.21
R5: Q 2.33 | A 1.98 | M 1.38 | D 1.38 | E 1.34 | P 1.29 | W 1.98 | T 1.44 | I 1.92 | K 3.21 | F 2.41 | C 2.33 | G 1.49 | Y 3.45
M1: Q 1.65 | C 1.98 | E 1.22 | L 1.39 | P 2.12 | N 1.56 | A 1.91 | G 1.86 | S 1.56 | D 1.78 | K 2.14 | H 2.14

Variants of: B2
Assay: as above
Settings: c terminus: a fixed tail appended

Protein stability index, by site and new letter:
L20: F 2.8 | K 1.48 | G 2.02 | S 1.82 | W 3.22 | R 2.35 | C 2.48 | V 2.02 | N 1.94 | H 1.89 | T 2.12 | D 1.55 | Q 2.79 | P 2.41 | M 2.45 | Y 3.18 | E 1.81 | A 2.06 | I 2.04
A18: T 1.93 | E 1.88 | K 2.63 | H 2.18 | F 1.83 | C 2.33 | V 1.09 | N 2.22 | I 3.08 | G 2.35 | Q 2.84 | Y 2.19 | P 3.01 | L 2.88 | R 1.93 | W 2.53 | S 2.73 | D 2.21
I15: F 1.8 | C 2.84 | Q 2.57 | M 2.7 | G 2.09 | W 2.77 | T 1.91 | L 2.16 | H 2.29 | D 1.93 | V 1.56 | R 1.86 | P 2.63 | N 3.26 | E 1.77 | S 2.36 | K 2.26 | Y 1.95 | A 2.8
V14: T 2.66 | K 2.34 | S 2.84 | I 1.63 | N 2.34 | D 2.17 | Q 1.4 | R 2.67 | L 2.79 | W 2.4 | M 2.75 | A 1.73 | F 2.99 | G 2.18 | Y 1.8 | E 1.97 | C 2.54 | H 2.23 | P 1.92
G22: S 1.66 | V 2.74 | N 2.15 | H 1.63 | D 2.53 | Y 1.69 | Q 2.12 | C 2.39 | T 2.05 | A 2.8 | M 1.63 | F 2.21 | K 2.18 | L 1.85 | W 2.55 | P 2.01 | E 1.77 | R 1.69 | I 2.29
P16: G 1.93 | C 2.57 | T 2.14 | M 2.56 | Y 2.98 | L 2.52 | F 3.22 | W 2.19 | N 2.33 | I 2.23 | D 2.54 | V 2.44 | S 1.64 | A 3.14 | Q 2.37 | R 3.04 | E 2.05 | K 2.13 | H 2.1
Y23: A 2.15 | E 2.3 | V 2.13 | K 1.46 | S 1.52 | N 2.34 | C 2.51 | W 2.5 | R 1.89 | H 2.18 | M 1.89 | I 2.53 | T 2.26 | P 1.47 | G 1.73 | L 2.58 | Q 1.86 | F 2.21 | D 1.91
P13: T 2.4 | N 2.46 | Y 2.59 | R 3.04 | L 2.82 | S 1.62 | W 2.13 | K 2.4 | I 1.88 | H 2.36 | Q 1.63 | V 2.77 | M 1.95
A17: C 2.97 | Q 1.87 | M 1.38 | P 1.79 | G 3.1 | I 2.52 | S 2.25 | W 3.98 | T 2.11 | H 2.15 | N 1.64 | E 2.19 | L 2.04 | F 1.76 | V 1.63 | Y 2.86 | D 1.41 | K 1.98
A19: Y 2.13 | D 2.07 | E 1.91 | M 1.63 | N 2.17 | S 1.86 | V 3.93 | C 1.86 | K 2.9 | Q 2.84 | L 1.55 | G 2.62 | W 2.98 | T 2.17 | H 1.75 | I 2.14 | P 2.04 | F 3.59 | R 2.53
A21: F 3.51 | T 2.52 | E 2.1 | G 1.63 | R 2.07 | S 2.53 | M 1.45 | I 2.42 | H 2.06 | Y 2.74 | L 3.03 | W 2.75 | N 2.14 | Q 1.95 | K 2.08 | V 2.38 | D 2.4 | P 1.65
T24: G 1.69 | E 2.08 | H 3.26 | P 2.77 | D 1.45 | I 2.37 | F 1.84 | C 2.47 | V 1.74 | Y 2.11 | A 2.37 | L 2.7 | R 2.1 | K 2.81 | W 4.5 | M 2.67 | S 1.98 | Q 2.69
